# According to the nanobody polyreactivity screen of Harvey et al. (2022):
# Test: yeast display, Sf9 membrane polyspecificity reagent, FACS + sequencing; frameworks hold sequencing errors
# Outline: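 Polyreactivity labels are assigned by the sorting gate from which each nanobody was recovered. The gates were low and high (top ~1%), set on anti-HA fluorescence for expression and streptavidin fluorescence for reagent binding. Before sorting, galactose-induced (36–48 hours) yeast display cells were stained for 1 hour at 4 °C with 10% biotinylated, detergent-solubilized Sf9 membrane reagent.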
row,Sequence,polyreactivity (PSR sort gate)
1,QVQLVESGGGLVQAGGSLRLSCAASGLTFRYYAMGWYRQAPGKERELVAAISSRGASTYYADSVKGRFTISRDNAKNTVYLQMNSLKPEDTAVYYCAVRTYVYHWSFSSLPYDYWGEGTQVTVSS,high polyreactivity
2,QVQLVESGGGLVQAGGSLRLSCAASGYNFVRNAMGWYRQAPGKERELVAAISGSGGSTYYADSVKGRFTISRDNAKNTVYLQMNSLKPEDTAVYYCAADYATVTWRGIAYDYWGQGTQVTVSS,low polyreactivity
3,QVQHVESGGGLVQSGGSHRLSCAASGSTFSDNSLGWYRQAPAKERELVAAISRSGGSTYYADSVNGRFTISRDYAKNTVYLQMNSLIPEDTAVYYCATNRVLTGYDSWGQGTQVTVSS,high polyreactivity
4,QVQLVESGGGLVQAGGSLRVSCAASGSIFGPYAMGLYRQAPGKERELVATSTYYADSVKGRFTISRDNAKNTVYLQMHRLKPEDTAVYYCAKTPYYSGYGWGYDYWGQGTQVTVSS,low polyreactivity
5,QVQLVESGGGLVQAGGSLRLSCAASGIIFHGYAMGWYRQAPGKERDLVAAITASDGDTYYADSVKGRFTISRDNAKNTVYLQMNSMKPEDTAVYYCAADFWYYHTRMDYWGQGTQVTVSS,low polyreactivity
6,QVQLVESGGGLVQAGGSLRLSCAASGFIFVTYAMGWYRHAPGKERELVAAITNSGGTTYYADSVKGRFTISRDNAKNTVYLQMNSLKPEDTAVYYCNKPYGAETAHREFDYWGQGTQVTVSS,low polyreactivity
7,QVQLVESGGGLVQAGGSLRLSCAASGSIFEVYAMGWYRQAPGKERELVAAISGNGGSTYADSVKGRFTISRDNAKNTVYLQMNSLKPEDTAVYYCAAVPYGYGLASDSIFDYWGQGTQVTVSS,high polyreactivity
8,QVQLVESGGGLVQAGGSLRLSCAASGSTFYPYAKGWYRQAPRKERELVATITNSGGSTYYADSVKGRFTISRDNAKNTVYLQMNSLKPEDTAVYYCARVRSRNTGYYYWGQGTQVTVSS,high polyreactivity
9,QVQLVESGGGLVQAGGSLRLSCAASGRIFVGNAMGRYRQAPGKERELVAAISRSGGRTYYADSVKGRFTISRDNAKNTVYLQMNSLKPEDTAVYYCNTRVYAGKYDYWGQGTQVTVSS,high polyreactivity
10,QVQLVESGGGLVQAGGSLRLSCAASGRIFSFYTMGWYRQAPGKERELVAAITWRGGSTYYADSVKGRFTISRDNAKNTVYLQMNSLKPEDTAVYYCAAEVYGAVYDYWGQGTQVTVSS,low polyreactivity
11,QVQLVESGGGLVQAGGSLRLSCAPSGSTFRFYAMGWYRQAPGKERELVAVISSAGSTNYADSVKGRFTISRDNAQNTVYLQMNSLKPEDTAVYYCAAYRRYSIYNYWGQGTQVTVSS,high polyreactivity
12,QDQLVESGGGLVQAGGRLRLSCAASGSTFWWYDMGWYRKAHGKDRELVAAINWSGGSTYYADSVKGRFTISRDNAKNTVYLQMNSLKPEDTAVYYCAKVGRETEYDYWGQGTQVTVSS,high polyreactivity
13,QDQLVESGGGLVQAGGRLRLSCAASGSIFCGNAMGWYRQAPGKERDLVAAITYRSGRTYYADSVKGRFTISRDNAKNTVYFQMNSLKPEDTAVYDCAAEFGGASRYTYNYWGQGTQVTVSS,low polyreactivity
14,QVQLVESGGGLVQAGGSLRLSCAASGSTFQSYAMGWYRQAPGKERELVAAISARGGTTYYADSVKGRFTISRDNAKNTVYLQMNSLKPEDTAVYYCAVDRAFRAQNYHEYDYWGQGTQVTVSS,low polyreactivity
15,QVQLVESGGGLVQAGGSLRISCAASGNTFTRNTMGWYRQAPGKERELVASISLSGASTYYADSVKGRFTISRDNAKNTVYLQMNSLKPEDTAVYYCAARSRQDLEYDYWGQGTQVTVSS,high polyreactivity
16,QVQLVESGGGLVQAGGSLRLSCAASGRILDGYAMGWYRQAPGKERELVAAISSRGGRTYYADSVKGRFTISRDNAKNTVYLQMNSLKPEDTAVYYCAADFSKSRRPIRFYYWGQGTQVTVSS,high polyreactivity
17,QGQLVESGGGLVQAGGSLRLSCAASGSIFSLNSMGWYRQAPGKERELVAASGGGSTYYADSVKGRFTISRDNAKNTVYLQMNSLKTEDTAVYYCAGDQSFDYDFSHYYYWGQGTQVTVSS,low polyreactivity
